Values quoted from earlier work in paper PMC10651016.

Tested on: Lys110
Test: kinetics
Details: steady-state turnover with L-proline; FAD-bound enzyme

Which pKa does the source give for “L-proline dehydrogenase (ProDH) (Mycobacterium tuberculosis)” here?
Its pKa is 6.8.
